The values that follow come from patent US20140287989A1 (CENTRE NATIONAL DE LA RECHERCHE SCIENTIFIQUE, published 2014).

Values joined by “and” are separate entries in the source; they are usually repeats but may differ in a detail not shown here. Equal entries are not always repeated. Square brackets hold non-standard residues; d marks the D form. Phe(3,4-Cl2) = N[C@@H](Cc1ccc(Cl)c(Cl)c1)C(=O)O; Phe(4-Br) = N[C@@H](Cc1ccc(Br)cc1)C(=O)O; Phe(4-Cl) = N[C@@H](Cc1ccc(Cl)cc1)C(=O)O; Phe(4-Me) = Cc1ccc(C[C@H](N)C(=O)O)cc1; Cha = N[C@@H](CC1CCCCC1)C(=O)O Some results are limits rather than exact numbers.

Assay [1] addresses E. coli β clamp (β subunit of DNA polymerase III, dnaN gene product) (E. coli) (UniProt P0A988). In words: SPR competition: peptide with β ring injected on immobilized P1.
In assay [2] the target is E. coli β clamp (β subunit of DNA polymerase III, dnaN gene product), N-tagged (E. coli) (UniProt P0A988). In words: ITC, peptide 400 µM into β ring 20 or 30 µM, 25° C.
Sequence of E. coli β clamp (β subunit of DNA polymerase III, dnaN gene product), N-tagged (E. coli) (P0A988 whole entry): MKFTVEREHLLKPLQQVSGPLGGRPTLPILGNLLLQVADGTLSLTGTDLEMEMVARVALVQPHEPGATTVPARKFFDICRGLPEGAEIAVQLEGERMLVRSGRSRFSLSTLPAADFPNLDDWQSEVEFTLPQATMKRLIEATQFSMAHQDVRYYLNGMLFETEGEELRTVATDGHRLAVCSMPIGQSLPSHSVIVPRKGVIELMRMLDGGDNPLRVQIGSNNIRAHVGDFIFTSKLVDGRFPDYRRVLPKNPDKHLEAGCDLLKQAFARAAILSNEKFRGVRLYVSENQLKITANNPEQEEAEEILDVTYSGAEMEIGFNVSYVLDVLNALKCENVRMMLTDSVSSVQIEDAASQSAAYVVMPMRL
Assay [3] has the same target.
Assay [4] has the same target. Briefly: SPR competition against P1, ratio of IC50 values; written as printed, the two labels seem exchanged against Table 14 and paragraph 151.
Assay [5] has the same target. Briefly: SPR competition against P1.
Assay [6] has the same target. In words: SPR competition (Biacore 3000): β ring 0.25 µM mixed with the challenger, injected on immobilised P1.
Assay [7] shares this target. In words: SPR competition on immobilised P1; ΔG = -RT ln Ki.
Assay [8] has the same target. Briefly: SPR competition on immobilised P1.
The target in assay [9] is E. coli β clamp (β subunit of DNA polymerase III, dnaN gene product) (E. coli) (UniProt P0A988). Briefly: SPR competition, concentration of peptide that challenges 50% of the binding of β ring to P1.
Sequence of E. coli β clamp (β subunit of DNA polymerase III, dnaN gene product) (E. coli) (P0A988 whole entry): as above
The target in assay [10] is T1, E. coli β clamp (β subunit of DNA polymerase III, dnaN gene product) (E. coli, UniProt P0A988 1-366).
T1 construct: Expressed in BL21 E. coli from pET15b with an N-terminal tag; also called β ring; β protein; not shown: N-terminal tag from plasmid pET15b ('N-tagged protein', purified on Ni-NTA)
Briefly: ITC, peptide 400 µM into β ring 30 µM, 25 °C, second experiment.

Assay [11] deals with T1, E. coli β clamp (β subunit of DNA …). Briefly: SPR competition, β ring on immobilised P1.
For assay [12] the target is unchanged. Briefly: ITC, peptide 400 µM into β ring 30 µM, 25 °C.
For assay [13], the target named is T2, E. coli β clamp (β subunit of DNA polymerase III, dnaN gene product) (E. coli, UniProt P0A988 1-366).
T2 construct: Homodimeric ring; N-tagged protein expressed in BL21 E. coli and purified on Ni-NTA and MonoQ; also called β ring; β protein; not shown: N-terminal tag from the pET15b plasmid
In words: SPR competition: peptide with β ring injected on immobilized P1.

In assay [14] the target is T2, E. coli β clamp (β subunit of DNA …). Briefly: SPR competition; ΔG = -RT ln Ki.
Assay [15] has the same target. Briefly: SPR competition: peptide with β ring injected on immobilized P1. This is another data set of the same source.
Assay [16] concerns the target T3, E. coli β clamp (β subunit of DNA polymerase III, dnaN gene product), N-tagged (E. coli, UniProt P0A988 1-366).
T3 construct: The dnaN gene was cloned in pET15b and expressed in BL21 E. coli; also called β ring; β protein; not shown: N-terminal tag from the pET15b vector (N-tagged protein, enriched on Ni-NTA)
In words: SPR competition on immobilised P1; ΔG = -RT ln Ki.

In assay [17] the target is T3, E. coli β clamp (β subunit of DNA …). In words: SPR competition on immobilised P1.
For assay [18] the target is unchanged. In words: cell-based or functional assay.

T3 sequence (P0A988 whole entry): as above

Molecule P17, Ac Q Cha D Cha F (peptide) gave an IC50 in [1] of 310 nM. In other words, the sub-micromolar range.

In the case of P19, Ac Q ChaD NptGly F (peptide), in assay [1], the IC50 turned out to be 5630 nM.

P12 (Ac-Q Cha DL pClF) (peptide): the Kd in assay [2] amounted to 100 nM. In assay [3], this molecule displayed an IC50, Pol IV based biochemical assay (inhibition of β dependent Pol IV elongation) of 300 nM.

For the molecule P14-7 (Ac R Q Cha R L F) (peptide), the affinity ratio against P7 in [4] was 5 fold; in [5], over 50 fold.

In assay [1], “P23, Ac-QFDLF (peptide; other documents disagree on this pair)” came in with an IC50 of 31600 nM.

P13 (Ac-Q Cha DL pBrF) (peptide) yielded a Kd in assay [2] of 150 nM. This molecule returned an IC50, Pol IV based biochemical assay (inhibition of β dependent Pol IV elongation) in assay [3] of 250 nM.

On to “P4 (RQLVFL) (peptide; other documents disagree on this pair)”, for which the IC50 in [6] is 256000 nM.

In assay [3], P3 (RQLVLF) (peptide) yielded an IC50, Pol IV based biochemical assay (inhibition of β dependent Pol IV elongation) of 7000 nM.

P18, Ac Q Cha D hCha F (peptide) gave an IC50 in [1] of 720 nM. This lies in the sub-micromolar range.

For P16, Ac Q Cha D hLeu F (peptide), in assay [1], the IC50 stood at 230 nM. This IC50 lies about 3.1-fold lower than the previous one.

Regarding “P2 (RQLVLL) (peptide; other documents disagree on this pair)”, the ΔG in assay [7] was -6.54 kcal/mol. Besides, in assay [8], the fold decrease in interaction against P1 was 2 fold and 3 fold. The molecule further had an IC50 in assay [6] of 21500 nM.

Take P20, Ac-Q Cha DL Cha (peptide): in [1], the IC50 was 410 nM.

“P14-5 (Cin R Q Cha N L diClF) (peptide; other documents disagree on this pair)” registered a Ki in assay [9] of 3250 nM.

P22, Ac-Q Cha DL Atda (peptide): in [1], the IC50 worked out at 3720 nM.

P11 (Ac-Q Cha DL pMeF) (peptide): in assay [2], the Kd turned out to be 380 nM. The molecule further gave an IC50, Pol IV based biochemical assay (inhibition of β dependent Pol IV elongation) in assay [3] of 2000 nM.

On to “P21, Ac-Q Cha DLW (peptide; other documents disagree on this pair)”, for which the IC50 in assay [1] stood at 640 nM.

Take “P14-8 (Ac R Q Cha K L F) (peptide; other documents disagree on this pair)”: in assay [4], the affinity ratio against P7 came to 50 fold. Further, in assay [5], the Ki is 1000 nM and the fold decrease in affinity against P14 is 10 fold. Besides, the inhibitory constant (Ki) in assay [9] was determined as 904 nM.

B1: P1, natural C-terminal heptapeptide of E. coli DNA polymerase IV (RQLVLGL) (peptide)
peptide: H-RQLVLGL-OH
notes: Free peptide in ITC; also called H-Arg-Gln-Leu-Val-Leu-Gly-Leu-OH
As for B1, in assay [10], the Kd stood at 2010 nM, the ΔG was -7.7 kcal/mol, the ΔH was -5.5 kcal/mol and the ΔS turned out to be 7.6 cal/mol/deg. In [11], this molecule came in with an IC50 of 8850 nM. Further, in assay [12], binding was put at a Kd of 1580 nM, the ΔG is -7.9 kcal/mol, the ΔH is -4.09 kcal/mol and the ΔS came to 12.8 cal/mol/deg.

B2: P14, Ac-Gln-Cha-Asp-Leu-(3,4-di-Cl)Phe-OH (peptide)
peptide: Ac-Q[Cha]DL[Phe(3,4-Cl2)]-OH
SMILES: CC(=O)N[C@@H](CCC(N)=O)C(=O)N[C@@H](CC1CCCCC1)C(=O)N[C@@H](CC(=O)O)C(=O)N[C@@H](CC(C)C)C(=O)N[C@@H](Cc1ccc(Cl)c(Cl)c1)C(=O)O
notes: X stands for Cha; the substituted phenylalanine is written F; also called Ac-Q Cha DL diClF; Bu29
Take B2: the figures for the IC50 in [13] and in assay [15] were 77 nM and 72 nM, respectively. In [14], this molecule registered a ΔG of -9.85 kcal/mol.

B3: E. coli DNA polymerase IV (enzyme)
chain: MRKIIHVDMDCFFAAVEMRDNPALRDIPIAIGGSRERRGVISTANYPARKFGVRSAMPTGMALKLCPHLTLLPGRFDAYKEASNHIREIFSRYTSRIEPLSLDEAYLDVTDSVHCHGSATLIAQEIRQTIFNELQLTASAGVAPVKFLAKIASDMNKPNGQFVITPAEVPAFLQTLPLAKIPGVGKVSAAKLEAMGLRTCGDVQKCDLVMLLKRFGKFGRILWERSQGIDERDVNSERLRKSVGVERTMAEDIHHWSECEAIIERLYPELERRLAKVKPDLLIARQGVKLKFDDFQQTTQEHVWPRLNKADLIATARKTWDERRGGRGVRLVGLHVTLLDPQMERQLVLGL
notes: Called the whole polymerase / the full PolIV enzyme; construct and tags not described; also called PolIV; Pol IV
Take B3: the ΔG in assay [16] is -9.09 kcal/mol.

B4: E. coli DNA polymerase IV (enzyme)
chain: MRKIIHVDMDCFFAAVEMRDNPALRDIPIAIGGSRERRGVISTANYPARKFGVRSAMPTGMALKLCPHLTLLPGRFDAYKEASNHIREIFSRYTSRIEPLSLDEAYLDVTDSVHCHGSATLIAQEIRQTIFNELQLTASAGVAPVKFLAKIASDMNKPNGQFVITPAEVPAFLQTLPLAKIPGVGKVSAAKLEAMGLRTCGDVQKCDLVMLLKRFGKFGRILWERSQGIDERDVNSERLRKSVGVERTMAEDIHHWSECEAIIERLYPELERRLAKVKPDLLIARQGVKLKFDDFQQTTQEHVWPRLNKADLIATARKTWDERRGGRGVRLVGLHVTLLDPQMERQLVLGL
notes: also called PolIV; Pol IV
Take B4: the ΔG in assay [14] was -9.09 kcal/mol.

Ac-QLDLF-OH (also called AcQLDLF) [P6, Ac-Gln-Leu-Asp-Leu-Phe-OH] registered a ΔG in assay [14] of -8.22 kcal/mol.

B5: P11, Ac-Gln-Cha-Asp-Leu-pMePhe-OH (peptide)
peptide: Ac-Q[Cha]DL[Phe(4-Me)]-OH
SMILES: CC(=O)N[C@@H](CCC(N)=O)C(=O)N[C@@H](CC1CCCCC1)C(=O)N[C@@H](CC(=O)O)C(=O)N[C@@H](CC(C)C)C(=O)N[C@@H](Cc1ccc(C)cc1)C(=O)O
notes: X stands for Cha; the substituted phenylalanine is written F; also called Ac-Q Cha DL pMeF
For B5, the IC50 in [13] and in [15] was 260 nM throughout. In addition, the ΔG in [14] is -9.44 kcal/mol.

B6: P13, Ac-Gln-Cha-Asp-Leu-pBrPhe-OH (peptide)
peptide: Ac-Q[Cha]DL[Phe(4-Br)]-OH
SMILES: CC(=O)N[C@@H](CCC(N)=O)C(=O)N[C@@H](CC1CCCCC1)C(=O)N[C@@H](CC(=O)O)C(=O)N[C@@H](CC(C)C)C(=O)N[C@@H](Cc1ccc(Br)cc1)C(=O)O
notes: X stands for Cha; the substituted phenylalanine is written F; also called Ac-Q Cha DL pBrF
For B6, the figures for the IC50 in assay [13] and in assay [15] were 96 nM and 100 nM, respectively. The molecule also returned a ΔG in [14] of -9.71 kcal/mol.

QLDLF [P5 (QLDLF)] gave a ΔG in assay [16] of -6.87 kcal/mol.

B7: P12, Ac-Gln-Cha-Asp-Leu-pClPhe-OH (peptide)
peptide: Ac-Q[Cha]DL[Phe(4-Cl)]-OH
SMILES: CC(=O)N[C@@H](CCC(N)=O)C(=O)N[C@@H](CC1CCCCC1)C(=O)N[C@@H](CC(=O)O)C(=O)N[C@@H](CC(C)C)C(=O)N[C@@H](Cc1ccc(Cl)cc1)C(=O)O
notes: X stands for Cha; the substituted phenylalanine is written F; also called Ac-Q Cha DL pClF
For the molecule B7, the IC50 in [13] and in assay [15] was 160 nM each time. In [14], this molecule showed a ΔG of -9.73 kcal/mol.

For the molecule Ac-QLDLF-OH (also called Ac-Gln-Leu-Asp-Leu-Phe-OH) [P6 (AcQLDLF), listing 1 of 2 here], in assay [10], the affinity, expressed as Kd, was 613 nM; the ΔG is -8.3 kcal/mol; the ΔH is -11.1 kcal/mol; the ΔS was -9.08 cal/mol/deg. In assay [12], this molecule returned a Kd of 820 nM, a ΔH of -11.3 kcal/mol and a ΔS of -10.4 cal/mol/deg.

For the molecule Ac-QLDLF-OH (also called Ac-Gln-Leu-Asp-Leu-Phe-OH) [P6 (AcQLDLF), listing 2 of 2 here], in assay [17], the “times tighter binding than P1” value is about 8 fold. Besides, the “IC50, Pol IV based biochemical assay (inhibition of β dependent Pol IV elongation)” value in assay [18] worked out at 4500 nM. This molecule also came in with a ΔG in assay [16] of -8.22 kcal/mol.

B8: P1, H-Arg-Gln-Leu-Val-Leu-Gly-Leu-OH (peptide)
peptide: H-RQLVLGL-OH
notes: also called RQLVLGL; natural Cter heptamer of E. coli DNA polymerase IV
In turn, B8 registered an IC50 in assay [13] of 8850 nM. The ΔG in assay [14] is -7.06 kcal/mol.

Turning to H-QLDLF-OH (also called QLDLF) [P5, H-Gln-Leu-Asp-Leu-Phe-OH], in assay [14], the ΔG was -6.87 kcal/mol.
